A short description of series [1]: immunoblot of PNGase F-treated MDCKII lysates, densitometry. As to conditions: glycan lost; control: wild type. A general note: In western blotting, separated proteins are transferred to a membrane and probed.
Series [2] in a line: confocal microscopy, apical marker gp135, MDCKII. As to conditions: glycan lost; control: wild type.

B1: ABCG2: Q596 (protein)
parent chain: MSSSNVEVFIPVSQGNTNGFPATASNDLKAFTEGAVLSFHNICYRVKLKSGFLPCRKPVEKEILSNINGIMKPGLNAILGPTGGGKSSLLDVLAARKDPSGLSGDVLINGAPRPANFKCNSGYVVQDDVVMGTLTVRENLQFSAALRLATTMTNHEKNERINRVIQELGLDKVADSKVGTQFIRGVSGGERKRTSIGMELITDPSILFLDEPTTGLDSSTANAVLLLLKRMSKQGRTIIFSIHQPRYSIFKLFDSLTLLASGRLMFHGPAQEALGYFESAGYHCEAYNNPADFFLDIINGDSTAVALNREEDFKATEIIEPSKQDKPLIEKLAEIYVNSSFYKETKAELHQLSGGEKKKKITVFKEISYTTSFCHQLRWVSKRSFKNLLGNPQASIAQIIVTVVLGLVIGAIYFGLKNDSTGIQNRAGVLFFLTTNQCFSSVSAVELFVVEKKLFIHEYISGYYRVSSYFLGKLLSDLLPMRMLPSIIFTCIVYFMLGLKPKADAFFVMMFTLMMVAYSASSMALAIAAGQSVVSVATLLMTICFVFMMIFSGLLVNLTTIASWLSWLQYFSIPRYGFTALQHNEFLGQNFCPGLNATGNNPCNYATCTGEEYLVKQGIDLSPWGLWKNHVALACMIVIFLTIAYLKLLFLKKYS
B1: the expression_or_secretion result in series [1] is reported as “decreases”. For the same protein, the localisation_or_trafficking result in series [2] was “no change”.

Values taken from article PMC4900533.
